This note sets out measurements from article PMC10238197, “Deafness‐Associated ADGRV1 Mutation Impairs USH2A Stability through Improper Phosphorylation of WHRN and WDSUB1 Recruitment” (Advanced Science, 2023).

The chains are these.
B1: Flag-WHRN (wild type) [mouse] / Myc-USH2A (usherin, aa 4819-5193) [mouse] (parent complex)
chain 1: MNAQLDGLSVSSSSTGSLGSAAAAAGGGGGAGLRLLSANVRQLHQALTALLSEPEREQFTHCLNAYHARRNVFDLVRTLRVLLDSPVKRRLLPMLRLVIPRSDQLLFDQYTAEGLYLPATTPYRQPAWAAPDGAGPGEVRLVSLRRAKAHEGLGFSIRGGSEHGVGIYVSLVEPGSLAEKEGLRVGDQILRVNDKSLARVTHAEAVKALKGSKKLVLSVYSAGRIPGGYVTNHIYTWVDPQGRSTSPPSSLPQPHGSTLRQREDDRRSTLHLLQSGDEKKVNLVLGDGRSLGLTIRGGAEYGLGIYITGVDPGSEAESSGLKVGDQILEVNGRSFLNILHDEAVKLLKSSRHLILTVKDVGRLPHARTTVDQTKWIASSRIGESVANSAGFPGDHTEEGTSKPGFYKGPAGSQVTLSSLGNQTRALLDDQARHLLTEQERATMMYYLAQYRGGTISVEAMVMALFELLNTHAKFSLLSEVRSIISPQDLDRFDHLVLRREIESMKARQPPGPGVGDTYSMVSYSDTGSSTGSHGTSTTVSSARERLLWLIDLMENTLDLEGTGETTQGSTNALPDVSVDDVKSPSEDLPGIKPPPPPPPLAQGHDRLLGQPRKPGREDPAPLSSAAHSGIVFSAPRNRSPPPGTAPTPGPSSAQDSPSSPIYASISHANPSSRKPLDTHLALVNQHPIGPFPRVQSPPHLKSPPAETPGAGACLPPPSPSEHPDAVGANQHFVLVEVHRPDSEPDVNEVRALPQTRTASTLSQLSDSGQTLSEDSGVDAGETEASTSGRGRQTASAKNKNGKEQPRTERTAEGANKPPGLLEPTSTLVRVRKSAATLGIAIEGGANTRQPLPRIVTIQRGGSAHNCGQLKVGHVILEVNGQTLRGKEHKEAARIIAEAFKTKERDYIDFLVTEFNVML
chain 2: PPSGLSPPQVQTLGSRMASVHWTPPLLPNGVIHSYELQLQRACPPDSAPRCPPSHTERKYWGPGHRASLAGLQPNTAYGVQVVAYNEAGSTASGWTNFSTKKEMPQYQALFSVDSNASMVWVDWSGTFLLNGHLKEYVVTDGGRRVYSGLDTTLYIPRMVDKIFFFQVTCTTDIGSVKTPLVQYDAATGSGLVLTTPGEKKGAGTKSTEFYSELWFIMVMAVVGLILLAIFLSLILQRKIHKEPCIRERPPLVPLQKRMTPLSVYPPGETHVGLADTRLPRSGTPMSIRSSQSVSVLRIPSQSQLSHAYSQSSLHRSVSQLMDMADKKVVTEDSLWETIMGHSSGLYVDEEELMNAIKGFSSVTKEHTAFTDTHL

The variants in this assay derive from B1. Briefly: co-immunoprecipitation (band intensity quantified); HEK293 cells; n = 3; parent: 1; read off a plot.
Take chain 1 S156E: the ratio to parent was around 1. In the case of chain 1 S384E it was around 1; in that of chain 1 S246E, around 1; in that of chain 1 S85E, around 1.

Take chain 1 S37E: the ratio to parent was around 1.
